The text below walks through data of paper PMC7021470 (mSphere, 2020).

One data set deals with NCI-H716 cells. Description: GLP-1 secretion screen with bacterial supernatants on NCI-H716 cells (ELISA). In kind it is cell-based, human. Conditions: 2 h incubation at 37°C, total GLP-1 by ELISA, medium control = 100%, PMA at 2 μM, mean ± SD, n = 3. A general note: ELISA stands for enzyme-linked immunosorbent assay.
Data set [1] addresses T1, E. faecalis metalloprotease GelE (bacterial supernatants) (Enterococcus faecalis, UniProt Q833V7).
T1 sequence (Q833V7 whole entry, looked up): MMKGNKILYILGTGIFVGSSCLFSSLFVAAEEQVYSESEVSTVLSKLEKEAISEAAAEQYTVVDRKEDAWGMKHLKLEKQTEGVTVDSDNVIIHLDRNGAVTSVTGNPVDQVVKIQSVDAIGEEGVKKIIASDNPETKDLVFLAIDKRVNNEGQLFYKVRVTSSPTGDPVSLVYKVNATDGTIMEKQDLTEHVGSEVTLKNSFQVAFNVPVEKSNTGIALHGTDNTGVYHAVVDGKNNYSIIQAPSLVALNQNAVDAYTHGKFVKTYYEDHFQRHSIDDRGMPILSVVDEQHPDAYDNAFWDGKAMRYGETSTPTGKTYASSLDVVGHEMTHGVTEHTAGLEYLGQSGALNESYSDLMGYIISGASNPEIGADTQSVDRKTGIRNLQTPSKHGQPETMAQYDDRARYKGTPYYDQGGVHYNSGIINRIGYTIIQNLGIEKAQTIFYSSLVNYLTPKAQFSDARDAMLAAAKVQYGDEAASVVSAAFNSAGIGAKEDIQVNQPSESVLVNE
Conditions: 4 h at room temperature; for quantity (%) of substrate remaining after incubation with supernatant, dilution 0.0001x: E. faecalis 30054A supernatant diluted 0.0001x in bacterial culture medium; for quantity (%) of substrate remaining after incubation with supernatant, dilution 0.0001x / quantity (%) of substrate remaining after incubation with supernatant, dilution 0.001x / quantity (%) of substrate remaining after incubation with supernatant, dilution 0.01x / quantity (%) of substrate remaining after incubation with supernatant, dilution 0.1x / quantity (%) of substrate remaining after incubation with supernatant, dilution 1x: recombinant substrate, Luminex (Milliplex) read-out, mean ± SD; for quantity (%) of substrate remaining after incubation with supernatant, dilution 0.0001x / quantity (%) of substrate remaining after incubation with supernatant, dilution 0.001x / quantity (%) of substrate remaining after incubation with supernatant, dilution 0.01x / quantity (%) of substrate remaining after incubation with supernatant, dilution 0.1x / degradation of substrate by GelE (in words): n = 3; for quantity (%) of substrate remaining after incubation with supernatant, dilution 0.001x: E. faecalis 30054A supernatant diluted 0.001x in bacterial culture medium; for quantity (%) of substrate remaining after incubation with supernatant, dilution 0.01x: E. faecalis 30054A supernatant diluted 0.01x in bacterial culture medium; for quantity (%) of substrate remaining after incubation with supernatant, dilution 0.1x: E. faecalis 30054A supernatant diluted 0.1x in bacterial culture medium; for degradation of substrate by GelE (in words): undiluted supernatants of E. faecalis 30054A, 30002, OG1RF, ΔgelE, ΔsprE, S613, Luminex, Fig. 4; for quantity (%) of substrate remaining after incubation with supernatant, dilution 1x: E. faecalis 30054A supernatant, 1x (undiluted), n = 3 independent experiments. The method, then:
To gain a better understanding of the substrate preference of GelE, we also tested the ability of diluted supernatants of E. faecalis 30054A, from 1 to 0.0001×, to degrade the same panel of metabolic substrates (Table 1).
Bacterial supernatants were collected from an overnight culture by centrifugation as described above, diluted in bacterial culture medium as indicated, and incubated with recombinant protein (GenScript; Sigma, Tocris) of each analyte for 4 h at room temperature, followed by storage at –80°C until ready for analyte quantification. The Milliplex multiplex assay was run according to the protocol provided by the manufacturer.

The subject of a further data set is E. faecalis 30054A. Description: Sensitivity of GLP-1-inhibitory activity to TPEN. In kind it is cell-based, Enterococcus faecalis. The note with it: E. faecalis 30054A grown overnight with increasing amounts of TPEN; supernatants incubated with 500 pM GLP-1, 4 h at room temperature; ELISA; n = 3. The source says: Supplementary file : FIG S1 Sensitivity of GLP-1-inhibitory activity to TPEN. […] Data were obtained from three (n = 3) independent experiments (replicates 1 to 3) with mean ± SD shown for each replicate (technical variation). Linear regression with R^2 goodness-of-fit value and P value are reported. Download FIG S1, EPS file, 0.1 MB.

Data set [2] concerns the target T2, E. faecalis metalloprotease GelE (bacterial supernatants) (Enterococcus faecalis, UniProt Q833V7). In kind it is in vitro ADME. The note with it: E. faecalis 30054A and 30002 supernatants; 200 pM GLP-1; 30 min at 100°C after incubation; ELISA; n = 2. Set-up: The secreted metalloprotease GelE serves E. faecalis by degrading misfolded surface proteins; endogenous in cells; host or cells: Enterococcus faecalis strains OG1RF, 30054A, 30002 (and TX5243 sprE mutant); culture supernatants. Here is the method: If GelE was targeting the ELISA and not GLP-1, one would expect to see high levels of GLP-1 in a sample heat treated after incubation with GLP-1, ensuring no further degradation by GelE during the ELISA.
Supplementary file : FIG S4 GLP-1-inhibitory activity with heat treatment pre- and postincubation. […] Data were obtained from two independent experiments (n = 2) and are expressed as the mean ± SD. Download FIG S4, PDF file, 0.02 MB.

The target of data set [3] is E. faecalis metalloprotease GelE (apical supernatants) (Enterococcus faecalis, UniProt Q833V7). Conditions: T84 transwell; approximately 500 pM GLP-1 in DMEM-F-12 basolateral; 16 h, 37°C, 5% CO2; ELISA; compared to DMEM-F-12 control; mean ± SD, four independent experiments. Here is the method: Growth cultures and assays of T84 cells were performed by methods described previously, with slight modifications ([26]). T84 human colonic epithelial cells (ATCC CCL-248) were propagated in tissue culture-treated T75 flasks (Cellstar), as indicated by the ATCC. When between 90 and 100% confluence, T84 cells were treated with 0.25% trypsin and plated onto 24-well, 3.0-μm polycarbonate membrane transwell filters (catalog no. 3415; Costar) at a density of 8 × 10^4 cells/well.
To prepare bacteria, on the day of the assay E. faecalis strains were subcultured 1% (vol/vol) from an overnight culture into GM17 and grown for 5 h, as described above. Whole-culture (cells plus supernatant) samples were diluted in DMEM–F-12 (Gibco) to a concentration of 1 × 10^7 CFU/ml, and supernatant samples were diluted 50% in DMEM–F-12. All samples were neutralized to a pH of 6.8 to 7 using 3 M NaOH.
A final TEER measurement was taken for each monolayer.

Data set [4] concerns the target T2, E. faecalis metalloprotease GelE (bacterial supernatants). The note with it: 500 pM recombinant GLP-1; 4 h at room temperature; ELISA; vs GM17 medium control; mean ± SD, n = 4. The source says:
Two secreted proteases from E. faecalis are well known, the serine protease SprE and the metalloprotease GelE, both of which are regulated by the two-component, quorum-sensing fsr (faecalis system regulator) operon ([9]) (Fig. 2A). We obtained strains of E. faecalis containing null mutations in sprE (TX5243), gelE (TX5264), and fsrB (TX5266), as well as a gelE sprE double mutant (TX5128), all generated in the commonly used wild-type OG1RF E. faecalis strain ([10]).
Supernatants from E. faecalis protease mutants and controls (OG1RF, TX5266 [fsrB mutant], TX5264 [gelE mutant], TX5243 [sprE mutant], and TX5128 [gelE sprE mutant]) were collected from an overnight culture grown in GM17 aerobically at 37°C by centrifugation, as described above.

Where two headings read alike, the source gives them in different places.

Description for NCI-H716 cells: NCI-H716 (American Type Culture Collection [ATCC] CCL-251) cells were grown in RPMI (ATCC) medium supplemented with 10% (vol/vol) heat-inactivated newborn calf serum (NBCS; Gibco). Cultures were maintained at a concentration of 2 × 10^5 to 8 × 10^5 cells/ml and used at passages 15 to 40 for cell studies. For cell studies, 96-well plates were coated with 100 μl of 10 mg/ml Matrigel (BD Biosciences) for 2 h at room temperature. Following coating, NCI-H716 cells were seeded at a concentration of 1 × 10^5 cells/well in Dulbecco’s modified Eagle’s medium (DMEM) supplemented with 10% (vol/vol) NBCS, as determined by trypan blue staining using a hemocytometer. Two days later, lyophilized bacterial supernatants were resuspended in Krebs buffer (Sigma) containing 0.2% (wt/vol) bovine serum albumin (BSA) and 0.03% (wt/vol) bovine bile and incubated on the NCI-H716 cells at 37°C with 5% CO2. […] Cell viability was monitored using the PrestoBlue cell viability reagent (Thermo Fisher Scientific), following the manufacturer’s instructions.

For `CCCCCCCCCCCCCC(=O)O[C@@H]1[C@@H](C)[C@@]2(O)[C@@H](C=C(CO)C[C@]3(O)C(=O)C(C)=C[C@@H]23)[C@@H]2C(C)(C)[C@]12OC(C)=O` [PMA, 4-Phorbol 12 myristate 13-acetate], the “GLP-1 compared to the medium controls” value in the data set with NCI-H716 cells came out at 200%.
For “monocyte chemoattractant protein-1 [MCP-1]”, in data set [1], the “quantity (%) of substrate remaining after incubation with supernatant, dilution 0.0001x” value was found to be 98.33 ± 2.89%; the “quantity (%) of substrate remaining after incubation with supernatant, dilution 0.001x” value came to 99.99 ± 0.01%; the “quantity (%) of substrate remaining after incubation with supernatant, dilution 0.01x” value was 99.92 ± 0.14%; the “quantity (%) of substrate remaining after incubation with supernatant, dilution 0.1x” value was 74.03 ± 44.98%. In addition, the “degradation of substrate by GelE (in words)” value (“degradation of substrate” for short) in data set [1] is reported as “less striking but still statistically significant”.
For the molecule `c1ccc(CN(CCN(Cc2ccccn2)Cc2ccccn2)Cc2ccccn2)nc1` [TPEN, N,N,N′,N′-tetrakis(2-pyridylmethyl)ethane-1,2-diamine], the “effect on GLP-1 degradation by supernatant” value with E. faecalis 30054A was “reduction in GLP-1 degradation”.
In the case of interleukin 6 [IL-6], in data set [1], the “quantity (%) of substrate remaining after incubation with supernatant, dilution 0.0001x” value came to 95.74 ± 6.94%; the “quantity (%) of substrate remaining after incubation with supernatant, dilution 0.001x” value is 95.75 ± 7.36%; the “quantity (%) of substrate remaining after incubation with supernatant, dilution 0.01x” value is reported as 99.91 ± 0.15%; the “quantity (%) of substrate remaining after incubation with supernatant, dilution 0.1x” value is listed as 99.78 ± 0.37%. In data set [1], the “quantity (%) of substrate remaining after incubation with supernatant, dilution 1x” value stood at 80.28 ± 24.77% and the “degradation of substrate” value is listed as “did not observe consistent degradation”.
Regarding insulin, in data set [1], the “quantity (%) of substrate remaining after incubation with supernatant, dilution 0.0001x” value is 99.23 ± 1.33%; the “quantity (%) of substrate remaining after incubation with supernatant, dilution 0.001x” value worked out at 99.97 ± 0.05%; the “quantity (%) of substrate remaining after incubation with supernatant, dilution 1x” value was 57.29 ± 7.69%; the “degradation of substrate” value was “less striking but still statistically significant”.
Turning to tumor necrosis factor alpha [TNFα], in data set [1], the “quantity (%) of substrate remaining after incubation with supernatant, dilution 0.0001x” value turned out to be 98.12 ± 1.67%; the “quantity (%) of substrate remaining after incubation with supernatant, dilution 0.001x” value is given as 99.28 ± 1.25%; the “quantity (%) of substrate remaining after incubation with supernatant, dilution 0.01x” value is reported as 99.72 ± 0.48%; the “quantity (%) of substrate remaining after incubation with supernatant, dilution 0.1x” value worked out at 87.87 ± 19.41%. In addition, the “degradation of substrate” value in data set [1] is “less striking but still statistically significant”.
As to `CC[C@H](C)[C@H](NC(=O)[C@H](Cc1ccccc1)NC(=O)[C@H](CCC(=O)O)NC(=O)[C@H](CCCCN)NC(=O)[C@H](C)NC(=O)[C@H](C)NC(=O)[C@H](CCC(N)=O)NC(=O)CNC(=O)[C@H](CCC(=O)O)NC(=O)[C@H](CC(C)C)NC(=O)[C@H](Cc1ccc(O)cc1)NC(=O)[C@H](CO)NC(=O)[C@H](CO)NC(=O)[C@@H](NC(=O)[C@H](CC(=O)O)NC(=O)[C@H](CO)NC(=O)[C@@H](NC(=O)[C@H](Cc1ccccc1)NC(=O)[C@@H](NC(=O)CNC(=O)[C@H](CCC(=O)O)NC(=O)[C@H](C)NC(=O)[C@@H](N)Cc1c[nH]cn1)[C@@H](C)O)[C@@H](C)O)C(C)C)C(=O)N[C@@H](C)C(=O)N[C@@H](Cc1c[nH]c2ccccc12)C(=O)N[C@@H](CC(C)C)C(=O)N[C@H](C(=O)N[C@@H](CCCCN)C(=O)NCC(=O)N[C@@H](CCCNC(=N)N)C(N)=O)C(C)C` [GLP-1, glucagon-like peptide-1], in data set [2], the “GLP-1 levels, supernatants heat treated after incubation with GLP-1” value was “low GLP-1 levels”. Further, in data set [3], the “GLP-1 in the basolateral compartment, apical 30054A supernatant” value was 3.1% ± 2.68% and the “GLP-1 in the basolateral compartment, apical OG1RF supernatant” value is on record as 1.6% ± 0.46%. For the same molecule, in data set [4], the “GLP-1 level after incubation with OG1RF (wild-type) supernatant” value is given as −0.06% ± 0.76% and the “GLP-1 level after incubation with ΔsprE mutant (TX5243) supernatant” value was −0.14% ± 0.74%.
leptin: in data set [1], the “quantity (%) of substrate remaining after incubation with supernatant, dilution 0.0001x” value amounted to 97.77 ± 3.87%; the “quantity (%) of substrate remaining after incubation with supernatant, dilution 0.001x” value was 99.78 ± 0.39%; the “quantity (%) of substrate remaining after incubation with supernatant, dilution 0.01x” value came out at 72.29 ± 1.72%; the “quantity (%) of substrate remaining after incubation with supernatant, dilution 0.1x” value is recorded as 7.95 ± 4.72%. For the same molecule, the “quantity (%) of substrate remaining after incubation with supernatant, dilution 1x” value in data set [1] amounted to 2.15 ± 0.96%. In data set [1] (listed as leptin), the “quantity (%) of substrate remaining after incubation with supernatant, dilution 0.1x” value is on record as 7.95% ± 4.72%.
